According to the supplement of paper PMC10567573:
± gives the standard deviation.

Assay: protein stability index of a GFP-peptide fusion (GPS, HEK-293T) (PSI 1-6); higher = more stable
[1] = treatment: DMSO, c terminus: a fixed tail appended
[2] = treatment: MLN4924 1 uM, 8 h, c terminus: a fixed tail appended
[3] = treatment: DMSO, c terminus: native
[4] = treatment: MLN4924 1 uM, 8 h, c terminus: native
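Note: 24-mer peptide tiles fused after GFP, lentivirally expressed, FACS-sorted into six equal bins by GFP/DsRed ratio, decoded by Illumina sequencing, PSI is the read-weighted mean bin number.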

Row | Sequence | protein stability index [1] | protein stability index [2] | protein stability index [3] | protein stability index [4]
1 | EEHGLQQERPRPEPGRLGSSSPAS [PXN] | 5.25 ± 0.43 | 5.1 ± 0.15 |  | 
2 | AQPQGAPCCSSSPEEPLNGESYES [FEM1A] | 5.41 ± 0.19 | 5.53 ± 0.2 |  | 
3 | PGFDRGQFHKQIAVMRGQILNLTQ [PI4K2A] | 2.56 ± 0.21 | 2.56 ± 0.28 |  | 
4 | FYSQEWYARQHCPLKNPTFLDYVR [SOAT1] | 2.4 ± 0.47 | 2.13 ± 0.25 |  | 
5 | ESLTEDEATQFLKQILDGVHYLHS [DAPK3] | 3.06 ± 0.28 | 3.29 ± 0.28 |  | 
6 | HNIVFGDYTWTEFDEPFLTRNVQS [TRIP13] | 2.63 ± 0.06 | 2.61 ± 0.32 |  | 
7 | IFYDLVRQINRKTPVPGKARKKSS [RAP1B] | 2.47 ± 0.47 | 2.37 ± 0.4 |  | 
8 | EDENIEVVYSKAASVPKVETVKSD [EIF5] | 5.44 ± 0.41 | 5.4 ± 0.19 |  | 
9 | EHGDQLLSIRCQHQEQVEDLTASH [MTUS2] | 5.25 ± 0.23 | 5.09 ± 0.22 |  | 
10 | KSNQPKSLEDLIFESLPENASHKL [ATE1] | 4.28 ± 0.21 | 4.5 ± 0.14 |  | 
11 | SLKGSLSVEEQLSLISGCPNIQEA [CRYL1] | 4.18 ± 0.3 | 4.12 ± 0.36 |  | 
12 | VSGFCRSPPVMVAGGRVFVLPCIQ [FLOT1] | 2.43 ± 0.38 | 2.45 ± 0.5 |  | 
13 | RSERKKWIHCFEGVTAIIFCVALS [GNAI1] | 3.21 ± 0.4 | 2.89 ± 0.8 |  | 
14 | DAAEEEKYDMEVRVQKTSKELEDM [TNNI2] | 5.45 ± 0.24 | 5.46 ± 0.17 |  | 
15 | KNFFKKAAAALFGGKKDKARYIDT [PLK2] | 1.95 ± 0.33 | 2.4 ± 0.63 |  | 
16 | NHLQTHDPNKMAFGCEECGKKYNT [PLAGL1] | 4.14 ± 0.16 | 4.77 ± 0.27 |  | 
17 | LEANADTSVEEESFGPQPISRLEQ [RAD51] | 5.38 ± 0.2 | 5.44 ± 0.18 |  | 
18 | AAAQSYPGYLPYSPEPPSLYGALN [IRX6] | 2.68 ± 0.077 | 2.87 ± 0.2 |  | 
19 | QAYLDDCHRRYSCAHCRAHLANHD [YPEL3] | 2.68 ± 0.43 | 2.45 ± 0.39 |  | 
20 | RRVGGSRILLRMTLGREVMSPLQA [NLN] | 2.15 ± 0.32 | 2.34 ± 0.35 |  | 
21 | KPVDMWACGVILYILLVGYPPFWD [CAMK2D] | 3.46 ± 0.29 | 3.36 ± 0.41 |  | 
22 | ARIQQSRRQCHAEEDQSQVPEAG [SMIM2] |  |  | 3.25 ± 0.4 | 3.29 ± 0.31
23 | YQRNLPRPGQAPIGNPPVGPIGGM [ZNF207] | 2.87 ± 0.32 | 3.31 ± 0.41 |  | 

Row | Sequence | protein stability index [1] | protein stability index [2] | protein stability index [3] | protein stability index [4]
24 | YVYFFCTVPEILVHNIVIFMRTSV [TMEM106C] | 3.13 ± 0.43 | 2.92 ± 0.37 |  | 
25 | MDGRWQCSCWAWFLLVLAVVAGDT [ADAMTSL2] | 2.62 ± 1 | 2.45 ± 0.52 |  | 
26 | FRGFPPEDLMPLAAAYGHALEQYE [P3H4] | 2.8 ± 0.36 | 3.08 ± 0.16 |  | 
27 | AKELTAEKRLEGQEEEEDNRDSSM [CHGA] | 5.67 ± 0.22 | 5.61 ± 0.31 |  | 
28 | ETLDYGKNYNYGMHYCAVPPRGPL [NEUROD6] | 2.65 ± 0.31 | 2.68 ± 0.14 |  | 
29 | RAVRQSVTSFPDADAFHHQVHDDD [EMD] | 5.2 ± 0.17 | 5.314 ± 0.044 |  | 
30 | ELERIGPQHQAGSDSLLTGMAFFK [CNOT7] | 3.25 ± 0.34 | 3.62 ± 0.11 |  | 
31 | HNCQLHRISFCADDKTDKRIFTFI [GULP1] | 2.61 ± 0.36 | 2.4 ± 0.52 |  | 
32 | LALGVSLLCNAITGITLLRVKFKS [PTGFR] | 2.88 ± 0.48 | 2.73 ± 0.37 |  | 
33 | VTAEVDLFGDAFAASPGEAPAASE [SNAP91] | 5.02 ± 0.26 | 5.02 ± 0.16 |  | 
34 | SKYVKLNVGGALYYTTMQTLTKQD [KCTD10] | 2.15 ± 0.25 | 2.44 ± 0.33 |  | 
35 | NQRMKSKRWQKNNWPKNSNGVTQK [NANOGP8] | 3.89 ± 0.44 | 4.2 ± 0.42 |  | 
36 | DDLMGILCKSVLEIERAIKQTQCP [FEM1C] | 2.07 ± 0.22 | 2.46 ± 0.29 |  | 
37 | PCAGLNCQALDANLDANLAFASFT [TLE6] | 2.98 ± 0.33 | 2.99 ± 0.28 |  | 
38 | SDPENWDRKLHSRPRKLYKHSSTS [BTBD10] | 3.77 ± 0.27 | 3.94 ± 0.24 |  | 
39 | VNAVRKLLIEGRSVNEHTEEGESL [ANKRD17] | 4.73 ± 0.24 | 4.79 ± 0.35 |  | 
40 | RRGSTPLHMAVERRVRGVVELLLA [RIPK4] | 2.9 ± 0.085 | 2.67 ± 0.045 |  | 
41 | PEQSLKKTKTSEYPIIFVYYLRKG [SPANXN3] | 2.75 ± 1.8 | 2.59 ± 0.37 |  | 
42 | GSPEQLQIPVTDSGRHILEDSCAE [SDE2] | 5.18 ± 0.27 | 5.5 ± 0.35 |  | 
43 | AALHMVIVAAFTWAFTLFFEVSE [KMT2E] |  |  | 2.48 ± 0.21 | 2.34 ± 0.16
44 | IHERTHERERLYPFSECGEAVSDS [ZNF263] | 4.81 ± 0.41 | 4.88 ± 0.22 |  | 
45 | MEHQLLCCEVETIRRAYPDANLLN [CCND1] | 2.86 ± 0.24 | 2.87 ± 0.28 |  | 
46 | AKLHDVELHQVAERVEALGQFVMK [GNB5] | 3.78 ± 0.2 | 3.74 ± 0.14 |  | 

Row | Sequence | protein stability index [1] | protein stability index [2] | protein stability index [3] | protein stability index [4]
47 | EYLSLVKGGQDVKKKVHLSEKIHP [PRIM1] | 2.65 ± 0.3 | 2.79 ± 0.39 |  | 
48 | FHKQQWFNCIRAAIAPFQSAGSPP [NET1] | 2.69 ± 0.58 | 2.5 ± 0.3 |  | 
49 | QLPFCGPNVIDNFLCDLYPLLKLA [OR4A15] | 2.64 ± 0.66 | 2.47 ± 0.25 |  | 
50 | VYMFKNGSGDSGDSSEEESHRVVL [LYSMD4] | 3.49 ± 0.32 | 3.33 ± 0.38 |  | 
51 | FMHSRNLYILGNFMQLKCFSSQKL [PNLIPRP1] | 3.11 ± 1.1 | 2.53 ± 0.74 |  | 
52 | LIVVTQSHLVIHNLFEGMIWFIVP [CDS2] | 3.06 ± 0.41 | 3.25 ± 0.59 |  | 
53 | RSQYEALVETNRREVEQWFATQTE [KRT34] | 4.29 ± 0.25 | 4.33 ± 0.33 |  | 
54 | TEPPVALAPGPAPTRCLPGHKEEE [ESRRA] | 5.28 ± 0.12 | 5.36 ± 0.34 |  | 
55 | DERTHRSDRPFKCNQCGKCFIQSS [ZNF8] | 2.98 ± 0.42 | 3.25 ± 0.47 |  | 
56 | ETYKMEFMYSGVENKQVVIIHHMR [INTS4] | 2.72 ± 0.56 | 2.46 ± 0.47 |  | 
57 | RKTQKKVPDVKEMEKSSFTEYIES [TAF7L] | 4.43 ± 0.13 | 4.47 ± 0.27 |  | 
58 | VCYFTNWAQYRQGEARFLPKDLDP [CHIT1] | 2.32 ± 0.14 | 2.34 ± 0.17 |  | 
59 | HIKEILITAGGENVPPIPVETLVK [ACSBG2] | 2.71 ± 0.38 | 2.88 ± 0.2 |  | 
60 | ILHIPQVTKLCVQFLNDQISVQNY [KLHL14] | 2.54 ± 0.45 | 2.51 ± 0.52 |  | 
61 | LKVRYRERITILRGNHESRQITQV [PPP2CA] | 2.37 ± 0.19 | 2.42 ± 0.32 |  | 
62 | VISLLNEPNTFSPANVDASVMFRK [UBE2R2] | 2.79 ± 0.31 | 3.04 ± 0.2 |  | 
63 | AWEPRSESQASRKEEGLPEEEPSH [ZNF8] | 5.38 ± 0.59 | 5.59 ± 0.1 |  | 
64 | VLDLEARGYIKPHVDSIKFCGATI [ALKBH7] | 2.14 ± 0.26 | 2.15 ± 0.42 |  | 
65 | EEETVTTKHIHITQATETTTTRHK [CLINT1] | 5.15 ± 0.2 | 5.19 ± 0.44 |  | 
66 | AEALYQTKFQELQLAAGRHGDDLK [KRT71] | 4.61 ± 0.28 | 4.71 ± 0.13 |  | 
67 | IGPIHLNEIQCTGNEKSIIDCKFN [LOXL2] | 3.63 ± 0.15 | 3.67 ± 0.23 |  | 
68 | STVKTETISFGSVSPGGVKLEIST [EPB41L3] | 3.19 ± 0.58 | 3.06 ± 0.42 |  | 
69 | ESSQKYKEGKYIIELNHMIKDNGW [YPEL3] | 3.04 ± 0.21 | 3.08 ± 0.27 |  | 

Row | Sequence | protein stability index [1] | protein stability index [2] | protein stability index [3] | protein stability index [4]
70 | IISSDELNVRSEEQVFNAVMAWVK [KLHL20] | 2.28 ± 0.22 | 2.42 ± 0.32 |  | 
71 | IENNKYGWFWVCPGGGDICMYRHA [ZC3H15] | 2.52 ± 0.32 | 2.15 ± 0.53 |  | 
72 | DLFVENMPGFPDNIRPSSSGGYWV [APMAP] | 2.32 ± 0.26 | 2.49 ± 0.34 |  | 
73 | LHCWLNAFAEMLRFGDRMFYKDWW [SOAT1] | 2.97 ± 0.3 | 2.77 ± 0.6 |  | 
74 | TVTSLQVPVLKPMDLMVEVSPRRI [PPP2R2C] | 2.52 ± 0.18 | 2.65 ± 0.32 |  | 
75 | TLSGTCLLIANKRQSYDISIVAQV [CARM1] | 2.38 ± 0.69 | 2.68 ± 1.5 |  | 
76 | PERLHAIKEQLIQEGLLDRCVSFQ [HDAC6] | 2.88 ± 0.11 | 3.18 ± 0.12 |  | 
77 | ERSRDVVDEVSVSLRLWDTFGDHH [RHOBTB1] | 3.27 ± 0.2 | 3.32 ± 0.31 |  | 
78 | LEIELQSQLSMKASLENSLEETKG [KRT16] | 5.28 ± 0.066 | 5.16 ± 0.17 |  | 
79 | GSIMTVWLSTAPTEPLTHWYQVRC [CARM1] | 2.74 ± 0.99 | 2.84 ± 0.23 |  | 
80 | PGFGCKAVRCASGRCTVRDFIHRH [SDE2] | 2.08 ± 0.43 | 2.14 ± 0.46 |  | 
81 | RRFNFFVLENNLEAVARHMLIFSL [DNAAF3] | 2.77 ± 0.49 | 2.6 ± 0.47 |  | 
82 | TYAVRKLDNTKFRSHEGETAYIRV [SRSF1] | 2.46 ± 0.39 | 2.38 ± 0.3 |  | 
83 | RLLLDSGAQVNMPADSFESPLTLA [ANKRD17] | 3.44 ± 0.23 | 3.46 ± 0.41 |  | 
84 | DAHFCAVCSDYASGYHYGVWSCEG [ESR2] | 2.2 ± 0.45 | 2.49 ± 0.42 |  | 
85 | RSDADLVVFLSPLTTFQDQLNRRG [OAS1] | 2.27 ± 0.22 | 2.33 ± 0.31 |  | 
86 | DRAVNDYPSLYYPEMYILKGGYKE [CDC25B] | 2.67 ± 0.25 | 2.85 ± 0.46 |  | 
87 | NITVVKGIRLSENVIDRMKESSPS [CHCHD3] | 3.66 ± 0.29 | 3.51 ± 0.28 |  | 
88 | RNQTQVLRQQQDEAYLASLRADQE [FAF2] | 5.18 ± 0.32 | 5.17 ± 0.16 |  | 
89 | PSSNEEIRLVDDAFGKICHMVSDG [INTS4] | 4.18 ± 0.23 | 4.5 ± 0.2 |  | 
